Here are results for one substance from PMC4585913, “Crystal structure of Streptococcus pneumoniae pneumolysin provides key insights into early steps of pore formation” (Scientific Reports, 2015).

The test deals with PLY R208A (Streptococcus pneumoniae) (UniProt P0C2J9).

The substance “PLY R208A (from UniProt P0C2J9 2-470) (natural protein)” came in with a cytolytic activity on human red blood cells, percent of native PLY activity (% native PLY activity) of 2.5.
